Data published in publication PMC5646240, “Norovirus Escape from Broadly Neutralizing Antibodies Is Limited to Allostery-Like Mechanisms” (mSphere, 2017).

B1: monoclonal antibody 2D3.7 (IgA) (antibody, V domains shown)
VH: VQLQESGPGLVAPSQSLSITCTVSGFSLTSYGVHWIRQPSGKGLEWLGVIWPGGSTNYNSALMSRLSISKDNSQSQVVLKMNSLQTDDSAMYYCARGRVAAWFAYWGQGTLVTVSA
VL: DIVMTQSQKFMSTSVGDRVSVTCTASQNVGTSVAWYLQRPGQSPEALIYSASYRNSGVPDRFTGSGSGTDFTLTISNVQSEDLADYFCQQYNNYPFTFGSGTKLEIK
notes: VH before the CDR3 loop; heavy chain CDR3 loop as printed; nearly identical to the light chain variable domain of PDB 2AEQ; IgA; also called MAb 2D3; IgA MAb 2D3
B2: murine norovirus MNV1.CW3 (GV/MNV1/2002/USA) virions, capsid protein (natural protein)
chain: MRMSDGAAPKANGSEASGQDLVPAAVEQAVPIQPVAGAALAAPAAGQINQIDPWIFQNFVQCPLGEFSISPRNTPGEILFDLALGPGLNPYLAHLSAMYTGWVGNMEVQLVLAGNAFTAGKVVVALVPPYFPKGSLTTAQITCFPHVMCDVRTLEPIQLPLLDVRRVLWHATQDQEESMRLVCMLYTPLRTNSPGDESFVVSGRLLSKPAADFNFVYLTPPIERTIYRMVDLPVIQPRLCTHARWPAPVYGLLVDPSLPSNPQWQNGRVHVDGTLLGTTPISGSWVSCFAAEAAYKFQSGTGEVATFTLIEQDGSAYVPGDRAAPLGYPDFSGQLEIEVQTETTKTGDKLKVTTFEMILGPTTNADQAPYQGRVFASVTAAASLDLVDGRVRAVPRSIYGFQDTIPEYNDGLLVPLAPPIGPFLPGEVLLRFRTYMRQIDTADAAAEAIDCALPQEFVSWFASNAFTVQSEALLLRYRNTLTGQLLFECKLYNEGYIALSYSGSGPLTFPTDGIFEVVSWVPRLYQLASVGSLATGRMLKQ
notes: capsid protein (VP1) of murine norovirus 1, strain MNV1.CW3, in whole infectious virions; S domain and P domain; Whole virions with a T=3 capsid; the antigen of the antibodies is the capsid protein; The UniProt entry recalled is of MNV1, not checked for the CW3 clone; also called MVV1; source: RAW 264.7 cells, infected; concentrated virus stock (ELISA); purified virions (ultracentrifugation, …)

Assays:
[1] = molecular target: T1, human norovirus GII.4 Sydney (2012-Sydney) virus-like particles (Human norovirus GII.4 …, UniProt K4LM89, strain); experiment: ELISA; data not shown; HuNoV VLPs (1 µg of each VLP per well in 100 µl PBS, 24 h at 4°C) tested with the MAbs; conditions: both partners purified
T1 construct: capsid protein of human norovirus GII.4 Sydney (2012), as virus-like particles; also called 2012-Sydney [GII.4]; source: provided by Grant Hansman (University of Heidelberg); expressed and purified as previously described (62)

[2] = molecular target: T2, human norovirus GII.12 Hiro virus-like particles (Human norovirus GII.12 Hiro, UniProt Q54AD6, strain); experiment: as above; conditions: both partners purified
T2 construct: capsid protein of human norovirus GII.12 Hiro, as virus-like particles; also called Hiro [GII.12]; source: provided by Grant Hansman (University of Heidelberg); expressed and purified as previously described (62)

[3] = molecular target: T3, human norovirus genogroup I Norwalk virus (NV) virus-like particles (Human norovirus GI, strain of AY502016 …, UniProt Q6EAV2); experiment: as above; conditions: both partners purified
T3 construct: capsid protein of human norovirus genogroup I strain Norwalk virus, as virus-like particles; also called Norwalk virus VLP; source: provided by Grant Hansman (University of Heidelberg); expressed and purified as previously described (62)

[4] = molecular target: T4, human norovirus GII.4 Saga (2006-Saga) virus-like particles (Norovirus Hu/GII-4/Saga1/2006/JP …, UniProt B5BTR4, strain); experiment: as above; conditions: both partners purified
T4 construct: capsid protein of human norovirus GII.4 Saga (2006), as virus-like particles; also called 2006-Saga [GII.4]; source: provided by Grant Hansman (University of Heidelberg); expressed and purified as previously described (62)

[5] = molecular target: T5, human norovirus GII.10 Vietnam026 virus-like particles (Human norovirus GII.10 Vietnam026, UniProt Q5F4T5, strain); experiment: as above; conditions: both partners purified
T5 construct: capsid protein of human norovirus GII.10 Vietnam026, as virus-like particles; also called Vietnam026 [GII.10]; source: provided by Grant Hansman (University of Heidelberg); expressed and purified as previously described (62)

[6] = molecular target: murine norovirus S99 (Berlin/06/06/DE) virions, capsid protein (murine norovirus (strain S99))
[7] = molecular target: murine norovirus MNV4 virions, capsid protein (Murine norovirus, strain MNV4, UniProt Q38J98, strain); experiment: cell-based or functional assay
[8] = molecular target: murine norovirus MNV3 virions, capsid protein (Murine norovirus, strain MNV3, UniProt Q38JA1, strain); experiment: cell-based or functional assay
[9] = molecular target: murine norovirus WU11 (GV/WU11/2005/USA) virions, capsid protein (Murine norovirus GV/WU11/2005/USA, UniProt A7YJZ2, strain); experiment: cell-based or functional assay
[10] = molecular target: murine norovirus CR3 (GV/CR3/2005/USA) virions, capsid protein (Murine norovirus GV/CR3/2005/USA, UniProt A7YK22, strain); experiment: cell-based or functional assay
[11] = molecular target: murine norovirus CR1 (GV/CR1/2005/USA) virions, capsid protein (Murine norovirus GV/CR1/2005/USA, UniProt A7YK19, strain); experiment: cell-based or functional assay
[12] = molecular target: murine norovirus WU20 (GV/WU20/2005/USA) virions, capsid protein (Murine norovirus GV/WU20/2005/USA, UniProt A7YJZ8, strain); experiment: cell-based or functional assay
[13] = molecular target: murine norovirus CR6 (GV/CR6/2005/USA) virions, capsid protein (Murine norovirus GV/CR6/2005/USA, UniProt A7YK31, strain); experiment: cell-based or functional assay
[14] = molecular target: murine norovirus CR7 (GV/CR7/2005/USA) virions, capsid protein (Murine norovirus GV/CR7/2005/USA, UniProt A7YK34, strain); experiment: cell-based or functional assay
[15] = molecular target: murine norovirus MNV1.CW3 (GV/MNV1/2002/USA) virions, capsid protein (murine norovirus (MNV1.CW3), UniProt Q80J94); experiment: cell-based or functional assay
[16] = molecular target: the molecule itself; experiment: cryo-EM structure; 2D3 Fab added to purified infectious MNV1 virions; image reconstruction at 8.7 Å (FSC 0.143) / 9.9 Å (FSC 0.5), fitted with atomic models of the P domain dimer and a modelled Fab

Binder | binding result [1] | binding result [2] | binding result [3] | binding result [4] | binding result [5] | plaque neutralization assay: 5 × 10^4 PFU with 0 to 1,000 ng MAb, 30 min at 37°C; virus titer relative to no antibody [6] [log] | plaque neutralization assay: 5 × 10^4 PFU with 0 to 1,000 ng MAb, 30 min at 37°C; virus titer relative to no antibody [7] [log] | plaque neutralization assay: 5 × 10^4 PFU with 0 to 1,000 ng MAb, 30 min at 37°C; virus titer relative to no antibody [8] [log] | plaque neutralization assay: 5 × 10^4 PFU with 0 to 1,000 ng MAb, 30 min at 37°C; virus titer relative to no antibody [9] [log] | plaque neutralization assay: 5 × 10^4 PFU with 0 to 1,000 ng MAb, 30 min at 37°C; virus titer relative to no antibody [10] [log] | plaque neutralization assay: 5 × 10^4 PFU with 0 to 1,000 ng MAb, 30 min at 37°C; virus titer relative to no antibody [11] [log] | plaque neutralization assay: 5 × 10^4 PFU with 0 to 1,000 ng MAb, 30 min at 37°C; virus titer relative to no antibody [12] [log] | plaque neutralization assay: 5 × 10^4 PFU with 0 to 1,000 ng MAb, 30 min at 37°C; virus titer relative to no antibody [13] [log] | plaque neutralization assay: 5 × 10^4 PFU with 0 to 1,000 ng MAb, 30 min at 37°C; virus titer relative to no antibody [14] [log] | plaque neutralization assay: 5 × 10^4 PFU with 0 to 1,000 ng MAb, 30 min at 37°C; virus titer relative to no antibody [15] [log] | binding result [16]
B1 | no binding | no binding | no binding | no binding | no binding | > 1 | ≥ 1 | ≥ 1 | ≥ 1 | ≥ 1 | ≥ 1 | ≥ 1 | ≥ 1 | ≥ 1 | ≥ 1 | 
B2 |  |  |  |  |  |  |  |  |  |  |  |  |  |  |  | binds
